Measurements as given in PMC3060684.
Where two headings read alike, the source gives them in different places.

How the values were obtained:
[1] = target: T1, GST-CCA1 (Arabidopsis thaliana, UniProt P92973 1-608); assay: EMSA
[2] = target: T1, GST-CCA1; assay: EMSA; remark: listed apart in the source

T1 sequence (P92973 whole entry): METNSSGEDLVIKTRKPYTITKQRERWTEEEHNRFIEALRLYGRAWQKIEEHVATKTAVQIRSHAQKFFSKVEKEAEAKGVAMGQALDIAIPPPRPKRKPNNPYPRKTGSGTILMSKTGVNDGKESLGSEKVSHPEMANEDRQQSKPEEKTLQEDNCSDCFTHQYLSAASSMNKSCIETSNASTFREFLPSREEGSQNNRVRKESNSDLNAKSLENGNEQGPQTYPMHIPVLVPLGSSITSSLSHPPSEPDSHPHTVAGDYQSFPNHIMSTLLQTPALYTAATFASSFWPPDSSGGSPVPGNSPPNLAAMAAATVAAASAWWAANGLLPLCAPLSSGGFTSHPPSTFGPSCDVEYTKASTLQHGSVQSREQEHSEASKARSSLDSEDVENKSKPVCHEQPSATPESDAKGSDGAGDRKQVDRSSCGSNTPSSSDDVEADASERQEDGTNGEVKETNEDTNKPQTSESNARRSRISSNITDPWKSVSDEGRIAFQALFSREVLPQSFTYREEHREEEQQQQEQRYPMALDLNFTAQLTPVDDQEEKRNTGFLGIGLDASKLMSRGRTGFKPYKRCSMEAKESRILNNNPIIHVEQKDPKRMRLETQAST

Binder | binding result [1] | binding result [2]
LumF (LumFs/LumFa) (dsDNA) DNA 1: AAGTGAAAAAAAAAAGAGATATTCGAAGGG DNA 2: GATTCCCTTCGAATATCTCTTTTTTTTTTC | binds | 
LumFD (LumFDs/LumFDa) (dsDNA) DNA 1: AAGTGAAAAAAAAAAGAGCTATTCGAAGGG DNA 2: GATTCCCTTCGAATAGCTCTTTTTTTTTTC |  | no binding
LumM (LumMs/LumMa) (dsDNA) DNA 1: TAAGTAGATATTGAAAGCAAGATTGAAAAAAATGTTG DNA 2: AATCAAACATTTTTTTCAATCTTGCTTTCAATATCT | binds | 
LumMD (LumMDs/LumMDa) (dsDNA) DNA 1: TAAGTAGCTATTGAAAGCAAGATTGAAAAAAATGTTG DNA 2: AATCAAACATTTTTTTCAATCTTGCTTTCAATAGCT |  | no binding
